The labels stand for the following.
B1: DnaJ homolog subfamily C member 2, residues 451 to 503; numbered along this chain, Q99543 (parent)
chain: SKNWSEDDLQLLIKAVNLFPAGTNSRWEVIANYMNIHSSSGVKRTAKDVIGKA

± gives the uncertainty stated by the source.

Data on 49 variants can be found in the Human Domainome abundance scans (Beltran et al. 2025).

In the data set the parent is B1. Nature of the data set: abundance fitness (aPCA) (normalised: wild type 0, dead -1); higher = more abundant; growth selection in yeast, the domain comes from the species named. To be noted: Homo sapiens.
In the case of SKNWSEDDLQLWIKAVNLFPAGTNSRWEVIANYMNIHSSSGVKRTAKDVIGKA, the abundance fitness is -0.177 ± 0.062.
Next, SKNWSEDDLQLEIKAVNLFPAGTNSRWEVIANYMNIHSSSGVKRTAKDVIGKA: -0.952 ± 0.092.
Then SKNWSEDDLQLPIKAVNLFPAGTNSRWEVIANYMNIHSSSGVKRTAKDVIGKA, with -0.719 ± 0.085; and SKNWSEDDLQLRIKAVNLFPAGTNSRWEVIANYMNIHSSSGVKRTAKDVIGKA, with -0.796 ± 0.058.
Next, SKNWSEDDLQLMIKAVNLFPAGTNSRWEVIANYMNIHSSSGVKRTAKDVIGKA: -0.223 ± 0.084.
In the case of SKNWSEDDLQLKIKAVNLFPAGTNSRWEVIANYMNIHSSSGVKRTAKDVIGKA, the abundance fitness is -0.97 ± 0.098.
Then SKNWSEDDLQLGIKAVNLFPAGTNSRWEVIANYMNIHSSSGVKRTAKDVIGKA, with -0.779 ± 0.057; and SKNWSEDDLQLQIKAVNLFPAGTNSRWEVIANYMNIHSSSGVKRTAKDVIGKA, with -0.894 ± 0.11.
Next, SKNWSEDDLQLAIKAVNLFPAGTNSRWEVIANYMNIHSSSGVKRTAKDVIGKA: -0.617 ± 0.067; SKNWSEDDLQLCIKAVNLFPAGTNSRWEVIANYMNIHSSSGVKRTAKDVIGKA: -0.667 ± 0.082.
Then SKNWSEDDLQLYIKAVNLFPAGTNSRWEVIANYMNIHSSSGVKRTAKDVIGKA, with -0.168 ± 0.091; and SKNWSEDDLQLTIKAVNLFPAGTNSRWEVIANYMNIHSSSGVKRTAKDVIGKA, with -0.907 ± 0.087.
Consider SKNWSEDDLQLSIKAVNLFPAGTNSRWEVIANYMNIHSSSGVKRTAKDVIGKA, for which the abundance fitness was -0.802 ± 0.067.
Then SKNWSEDDLQLIIKAVNLFPAGTNSRWEVIANYMNIHSSSGVKRTAKDVIGKA, with -0.456 ± 0.096.
Then SKNWSEDDLQLDIKAVNLFPAGTNSRWEVIANYMNIHSSSGVKRTAKDVIGKA, with -0.97 ± 0.11; and SKNWSEDDLQLVIKAVNLFPAGTNSRWEVIANYMNIHSSSGVKRTAKDVIGKA, with -0.511 ± 0.059; and SKNWSEDDLQLNIKAVNLFPAGTNSRWEVIANYMNIHSSSGVKRTAKDVIGKA, with -0.875 ± 0.13.
Then SKNWSEDDIQLLIKAVNLFPAGTNSRWEVIANYMNIHSSSGVKRTAKDVIGKA, with -0.014 ± 0.075.
Take SKNWSEDDYQLLIKAVNLFPAGTNSRWEVIANYMNIHSSSGVKRTAKDVIGKA: the abundance fitness turned out to be 0.022 ± 0.071.
Next, SKNWSEDDRQLLIKAVNLFPAGTNSRWEVIANYMNIHSSSGVKRTAKDVIGKA: -0.054 ± 0.058; SKNWSEDDKQLLIKAVNLFPAGTNSRWEVIANYMNIHSSSGVKRTAKDVIGKA: -0.043 ± 0.088; SKNWSEDDQQLLIKAVNLFPAGTNSRWEVIANYMNIHSSSGVKRTAKDVIGKA: 0.145 ± 0.085.
Then SKNWSEDDNQLLIKAVNLFPAGTNSRWEVIANYMNIHSSSGVKRTAKDVIGKA, with 0.184 ± 0.11; and SKNWSEDDPQLLIKAVNLFPAGTNSRWEVIANYMNIHSSSGVKRTAKDVIGKA, with -0.724 ± 0.11.
Next, SKNWSEDDEQLLIKAVNLFPAGTNSRWEVIANYMNIHSSSGVKRTAKDVIGKA: 0.03 ± 0.068; SKNWSEDDFQLLIKAVNLFPAGTNSRWEVIANYMNIHSSSGVKRTAKDVIGKA: 0.065 ± 0.078.
Regarding SKNWSEDDMQLLIKAVNLFPAGTNSRWEVIANYMNIHSSSGVKRTAKDVIGKA, the abundance fitness is 0.036 ± 0.078.
Next, SKNWSEDDWQLLIKAVNLFPAGTNSRWEVIANYMNIHSSSGVKRTAKDVIGKA: -0.058 ± 0.068; SKNWSEDDGQLLIKAVNLFPAGTNSRWEVIANYMNIHSSSGVKRTAKDVIGKA: -0.143 ± 0.056.
Then SKNWSEDDVQLLIKAVNLFPAGTNSRWEVIANYMNIHSSSGVKRTAKDVIGKA, with -0.082 ± 0.058; and SKNWSEDDHQLLIKAVNLFPAGTNSRWEVIANYMNIHSSSGVKRTAKDVIGKA, with -0.071 ± 0.11.
Then SKNWSEDDLQMLIKAVNLFPAGTNSRWEVIANYMNIHSSSGVKRTAKDVIGKA, with -0.229 ± 0.09; and SKNWSEDDLQDLIKAVNLFPAGTNSRWEVIANYMNIHSSSGVKRTAKDVIGKA, with -0.802 ± 0.1; and SKNWSEDDLQPLIKAVNLFPAGTNSRWEVIANYMNIHSSSGVKRTAKDVIGKA, with -0.891 ± 0.087.
For the variant SKNWSEDDLQCLIKAVNLFPAGTNSRWEVIANYMNIHSSSGVKRTAKDVIGKA, the abundance fitness was -0.403 ± 0.083.
Then SKNWSEDDLQYLIKAVNLFPAGTNSRWEVIANYMNIHSSSGVKRTAKDVIGKA, with -0.579 ± 0.093; and SKNWSEDDLQSLIKAVNLFPAGTNSRWEVIANYMNIHSSSGVKRTAKDVIGKA, with -0.582 ± 0.065.
Then SKNWSEDDLQILIKAVNLFPAGTNSRWEVIANYMNIHSSSGVKRTAKDVIGKA, with 0.007 ± 0.1; and SKNWSEDDLQGLIKAVNLFPAGTNSRWEVIANYMNIHSSSGVKRTAKDVIGKA, with -0.819 ± 0.058; and SKNWSEDDLQRLIKAVNLFPAGTNSRWEVIANYMNIHSSSGVKRTAKDVIGKA, with -0.536 ± 0.058.
Then SKNWSEDDLQVLIKAVNLFPAGTNSRWEVIANYMNIHSSSGVKRTAKDVIGKA, with -0.37 ± 0.056; and SKNWSEDDLQQLIKAVNLFPAGTNSRWEVIANYMNIHSSSGVKRTAKDVIGKA, with -0.632 ± 0.07.
SKNWSEDDLQALIKAVNLFPAGTNSRWEVIANYMNIHSSSGVKRTAKDVIGKA: the abundance fitness was -0.712 ± 0.073.
SKNWSEDDLQKLIKAVNLFPAGTNSRWEVIANYMNIHSSSGVKRTAKDVIGKA: the abundance fitness is -0.747 ± 0.1.
Next, SKNWSEDDLQFLIKAVNLFPAGTNSRWEVIANYMNIHSSSGVKRTAKDVIGKA: -0.382 ± 0.092; SKNWSEDDLQLLRKAVNLFPAGTNSRWEVIANYMNIHSSSGVKRTAKDVIGKA: 0.086 ± 0.054; SKNWSEDDLQLLLKAVNLFPAGTNSRWEVIANYMNIHSSSGVKRTAKDVIGKA: 0.085 ± 0.058.
Next, SKNWSEDDLQLLQKAVNLFPAGTNSRWEVIANYMNIHSSSGVKRTAKDVIGKA: 0.131 ± 0.08.
Then SKNWSEDDLQLLEKAVNLFPAGTNSRWEVIANYMNIHSSSGVKRTAKDVIGKA, with -0.006 ± 0.068.
